B1: RsPtxD (Ralstonia sp. 4506) (protein)
chain: MKPKVVLTHWVHPEIIELLSASADVIPNTTRETLPRSEVIARAKDADALMAFMPDSIDSAFLEECPKLRVIGAALKGYDNFDVNACTRHGVWLTIVPDLLTIPTAELTIGLLLGLTRHMLEGDRQIRSGHFQGWRPTLYGSGLTGKTLGIIGMGAVGRAIAQRLAGFEMNLLYCDPIPLNAEQEKAWHVQRVTLDELLEKCDYVVPMVPMAAETLHLIDATALAKMKTGSYLINACRGSVVDENAVIAALASGKLAGYAADVFEMEEWIRADRPQAIPKALLDNTAQTFFTPHLGSAVKEVRLEIERQAAMNIIQALAGEKPMGAINQPYPGVKAA

Assays:
[1] = test system: NC(=O)c1ccc[n+]([C@@H]2O[C@H](COP(=O)(O)OP(=O)(O)OC[C@H]3O[C@@H](n4cnc5c(N)ncnc54)[C@H](O)[C@@H]3O)[C@@H](O)[C@H]2O)c1; experiment: purified protein; details: 1 mM phosphite, 100 mM MOPS pH 7.3
[2] = test system: NC(=O)c1ccc[n+]([C@@H]2O[C@H](COP(=O)(O)OP(=O)(O)OC[C@H]3O[C@@H](n4cnc5c(N)ncnc54)[C@H](OP(=O)(O)O)[C@@H]3O)[C@@H](O)[C@H]2O)c1; experiment: purified protein; details: 1 mM phosphite, 100 mM MOPS pH 7.3
[3] = target: T1, shikimate dehydrogenase (SDH) (Thermus thermophilus, UniProt Q5SJF8); experiment: HPLC ([…] nm) of shikimic acid formed in coupled reaction with RsPtxD; format: biochemical; details: NADPH regenerated from 0.1 mM NADP by RsPtxD HARRA mutant; 20 mM phosphite; 100 mM HEPES pH 8.0; 45°C
T1 construct: gene aroE; pET-11a in E. coli Rosetta 2 (DE3) pLysS; heat treatment at 80°C and HiTrap SP purification
T1 sequence (Q5SJF8 1-263): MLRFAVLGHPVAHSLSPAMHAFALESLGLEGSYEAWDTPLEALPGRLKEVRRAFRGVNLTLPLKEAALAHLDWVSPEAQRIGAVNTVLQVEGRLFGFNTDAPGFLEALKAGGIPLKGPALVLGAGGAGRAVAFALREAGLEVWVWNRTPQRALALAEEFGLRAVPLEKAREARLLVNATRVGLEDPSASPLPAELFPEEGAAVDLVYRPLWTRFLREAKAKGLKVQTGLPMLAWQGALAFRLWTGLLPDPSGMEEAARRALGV

O=[PH](O)O = experiment: purified protein; details: 1 mM NADP as co-substrate, 100 mM MOPS pH 7.3
purified protein [4] = substrate: NC(=O)c1ccc[n+]([C@@H]2O[C@H](COP(=O)(O)OP(=O)(O)OC[C@H]3O[C@@H](n4cnc5c(N)ncnc54)[C@H](O)[C@@H]3O)[C@@H](O)[C@H]2O)c1; experiment: purified protein; details: 1 mM phosphite, 100 mM MOPS pH 7.3; remark: listed apart in the source
purified protein [5] = substrate: O=[PH](O)O; experiment: purified protein; details: 1 mM NAD as co-substrate, 100 mM MOPS pH 7.3
purified protein [6] = substrate: NC(=O)c1ccc[n+]([C@@H]2O[C@H](COP(=O)(O)OP(=O)(O)OC[C@H]3O[C@@H](n4cnc5c(N)ncnc54)[C@H](OP(=O)(O)O)[C@@H]3O)[C@@H](O)[C@H]2O)c1; experiment: purified protein; details: 1 mM phosphite, 100 mM MOPS pH 7.3; remark: listed apart in the source

Molecule	Km [1] [µM]	kcat [1] [min^–1]	kcat/Km [1] [M⁻¹ s⁻¹]	Km [2] [µM]	kcat [2] [min^–1]	kcat/Km [2] [M⁻¹ s⁻¹]	HPLC (230 nm) of shikimic acid formed in coupled reaction with RsPtxD [3]	Km (O=[PH](O)O) [µM]	Km (purified protein [4]) [µM]	kcat (purified protein [4]) [min^–1]	kcat/Km (purified protein [4]) [M⁻¹ s⁻¹]	Km (purified protein [5]) [µM]	Km (purified protein [6]) [µM]	kcat (purified protein [6]) [min^–1]
RsPtxD (Ralstonia sp. 4506; D175A/P176R)	412 ± 21.5	115 ± 13.0	5000	56 ± 5.1	91.1 ± 3.9	26700	–	–	–	–	–	–	–	–
NC(=O)C1=CN([C@@H]2O[C@H](COP(=O)(O)OP(=O)(O)OC[C@H]3O[C@@H](n4cnc5c(N)ncnc54)[C@H](OP(=O)(O)O)[C@@H]3O)[C@@H](O)[C@H]2O)C=CC1 [NADPH]	–	–	–	–	–	–	SDH catalyzes the reduction of 3-DHS to SA	–	–	–	–	–	–	–
RsPtxD (Ralstonia sp. 4506; C174H/D175A/P176R)	154 ± 14.7	155 ± 2.3	16700	24 ± 5.2	118 ± 6.8	81700	–	–	–	–	–	–	–	–
RsPtxD (Ralstonia sp. 4506; C174H/D175A/I177K/P176R/P178A)	130 ± 10.6	154 ± 7.5	20000	4.4 ± 0.9	129 ± 12.1	493000	–	27 ± 9.0	–	–	–	–	–	–
RsPtxD (Ralstonia sp. 4506; C174H/D175A/I177R/P176R/P178A)	112 ± 1.3	148 ± 14.8	21700	2.9 ± 0.5	128 ± 16.6	735000	–	38 ± 8.5	–	–	–	–	–	–
B1	–	–	–	–	–	–	–	–	7.7 ± 2.3	127 ± 16.8	277000	37.0 ± 7.0	418 ± 38.7	16.0 ± 6.3
